The numbers were not newly measured in PMC5830908, which cites them from elsewhere.

Series [1] deals with K-Ras (Homo sapiens) (UniProt P01116).
Series [2] shares this target. The source holds these as a separate data set.

Read-outs that look alike come from different tables or passages of the source.

Take KRpep-2: the dissociation constant Kd with K-Ras (Homo sapiens) [1] is 51 nM; with K-Ras (Homo sapiens) [2], 700 nM.
